Assay results as given in the supplement of paper PMC12667976.
± gives the standard error.

B1: library; numbered along this chain (parent)
chain: MATDAALRRLLRLHRTEIAVAVDSAFPLLHALADHDVVPEDKFQETLHLKEKEGCPQAFHALLSWLLTQDSTAILDFWRVLFKDYNLERYGRLQPILDSFPKDVDLSQPRKGRKPPAVPKALVPPPRLPTKRKASEEARAAAPAALTPRGTASPGSQLKAKPPKKPESSAEQQRLPLGNGIQTMSASVQRAVAMSSGDVPGARGAVEGILIQQVFESGGSKKCIQVGGEFYTPSKFEDSGSGKNKARSSSGPKPLVRAKGAQGAAPGGGEARLGQQGSVPAPLALPSDPQLHQKNEDECAVCRDGGELICCDGCPRAFHLACLSPPLREIPSGTWRCSSCLQATVQEVQPRAEEPRPQEPPVETPLPPGLRSAGEEVRGPPGEPLAGMDTTLVYKHLPAPPSAAPLPGLDSSALHPLLCVGPEGQQNLAPGARCGVCGDGTDVLRCTHCAAAFHWRCHFPAGTSRPGTGLRCRSCSGDVTPAPVEGVLAPSPARLAPGPAKDDTASHEPALHRDDLESLLSEHTFDGILQWAIQSMARPAAPFPS

Variants of: B1
Assay: AIRE transcriptional activation functional score (insulin promoter-GFP; nonsense median 0, synonymous median 1) (normalised score); higher = higher AIRE activity (more reporter activation)
Conditions: with insulin promoter-GFP reporter in HEK293
Procedure: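 Deep mutational scan of full-length human AIRE (codon-optimized cDNA, DT-POPCode NNN libraries over three regions) integrated at a Bxb1 landing pad in HEK293 cells carrying an insulin core promoter-GFP reporter at a Flp-In site. Cells were sorted for the top 10% GFP about 14 days after transfection. Variant frequency log-ratios (select vs non-select, TileSeq) were rescaled so that the nonsense median is 0 and the synonymous median is 1, then averaged over biological replicates.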

F453H and F453I are within error of each other in “AIRE transcriptional activation functional score” value: 0.147 ± 0.12 for the first, 0.235 ± 0.3 for the second.

A496S and A496P are within error of each other in “AIRE transcriptional activation functional score” value: 1.02 ± 0.23 for the first, 0.91 ± 0.15 for the second.

E53Q and E53W are within error of each other in “AIRE transcriptional activation functional score” value: 0.948 ± 0.95 for the first, 1.2 ± 0.36 for the second.

G269N and D515I are within error of each other in “AIRE transcriptional activation functional score” value: 0.306 ± 0.089 for the first, 0.101 ± 0.18 for the second.

D515Q and R316L are within error of each other in “AIRE transcriptional activation functional score” value: 0.723 ± 0.15 for the first, 0.804 ± 0.37 for the second.

Compared with S412E, Q275P is higher in “AIRE transcriptional activation functional score” value: 0.743 ± 0.087 for the first, 1.19 ± 0.28 for the second.

C446G and I224G are within error of each other in “AIRE transcriptional activation functional score” value: 0.144 ± 0.14 for the first, 0.296 ± 0.28 for the second.

First: I224S
Second: N179M
The “AIRE transcriptional activation functional score” value of the first is lower: 0.599 ± 0.27 for the first, 1.62 ± 0.043 for the second.

S153W and S169Q are within error of each other in “AIRE transcriptional activation functional score” value: 1.4 ± 0.025 for the first, 0.286 ± 1.9 for the second.

S196Q and S239P are within error of each other in “AIRE transcriptional activation functional score” value: 1.11 ± 0.19 for the first, 1.06 ± 0.48 for the second.

S239F and S239T are within error of each other in “AIRE transcriptional activation functional score” value: 1.06 ± 0.33 for the first, 1.17 ± 0.23 for the second.

C223K and F215R are within error of each other in “AIRE transcriptional activation functional score” value: 0.604 ± 0.12 for the first, 0.351 ± 0.33 for the second.

Compared with F215L, F215K is lower in “AIRE transcriptional activation functional score” value: 0.751 ± 0.17 for the first, -0.187 ± 0.16 for the second.

First: S187W
Second: K221N
The “AIRE transcriptional activation functional score” value of the first is lower: 0.0947 ± 0.081 for the first, 0.995 ± 0.098 for the second.

A205N and A205L are within error of each other in “AIRE transcriptional activation functional score” value: 0.648 ± 0.55 for the first, 0.428 ± 0.34 for the second.

Compared with A205I, G263C is higher in “AIRE transcriptional activation functional score” value: -0.0126 ± 0.15 for the first, 0.73 ± 0.28 for the second.

P350M and P542V are within error of each other in “AIRE transcriptional activation functional score” value: 1.11 ± 0.077 for the first, 1.16 ± 0.16 for the second.

N244C and A5C are within error of each other in “AIRE transcriptional activation functional score” value: 0.374 ± 0.65 for the first, 1.17 ± 0.35 for the second.

First: A5G
Second: E354Y
The “AIRE transcriptional activation functional score” value of the first is lower: 0.74 ± 0.35 for the first, 1.38 ± 0.2 for the second.

First: A505H
Second: K501M
The “AIRE transcriptional activation functional score” value of the first is lower: -0.421 ± 0.51 for the first, 0.223 ± 0.079 for the second.

V192R and V192G are within error of each other in “AIRE transcriptional activation functional score” value: 0.721 ± 0.25 for the first, 0.777 ± 0.18 for the second.

Going from W531I to W531N, the “AIRE transcriptional activation functional score” value falls from 0.285 ± 0.14 to -0.329 ± 0.13.

First: W65N
Second: C337L
The “AIRE transcriptional activation functional score” value of the first is lower: 0.316 ± 0.17 for the first, 1.16 ± 0.089 for the second.

Going from S217W to S217Y, the “AIRE transcriptional activation functional score” value rises from 0.119 ± 0.035 to 0.669 ± 0.09.

R149S and E45K are within error of each other in “AIRE transcriptional activation functional score” value: 1.26 ± 0.3 for the first, 0.348 ± 1.1 for the second.

First: E45R
Second: K245I
The “AIRE transcriptional activation functional score” value of the first is lower: -0.0981 ± 0.15 for the first, 0.196 ± 0.051 for the second.

Compared with K245H, Q44T is lower in “AIRE transcriptional activation functional score” value: 1.35 ± 0.17 for the first, 0.288 ± 0.37 for the second.

Compared with F459A, Q290G is higher in “AIRE transcriptional activation functional score” value: 0.0803 ± 0.28 for the first, 1.02 ± 0.32 for the second.

First: V188I
Second: L370A
The “AIRE transcriptional activation functional score” value of the first is higher: 1.01 ± 0.064 for the first, 0.668 ± 0.14 for the second.

Q426G and V226T are within error of each other in “AIRE transcriptional activation functional score” value: 0.866 ± 0.13 for the first, 0.799 ± 0.36 for the second.

V226Y and R356W are within error of each other in “AIRE transcriptional activation functional score” value: 0.994 ± 0.18 for the first, 0.964 ± 0.017 for the second.

F26L and A186W are within error of each other in “AIRE transcriptional activation functional score” value: -0.13 ± 0.44 for the first, 0.156 ± 0.039 for the second.

Compared with A186M, Q349C is higher in “AIRE transcriptional activation functional score” value: 0.198 ± 0.13 for the first, 1.1 ± 0.063 for the second.

A403P and A403N are within error of each other in “AIRE transcriptional activation functional score” value: 0.99 ± 0.26 for the first, 1.09 ± 0.056 for the second.

A403R and R113T are within error of each other in “AIRE transcriptional activation functional score” value: 0.877 ± 0.27 for the first, 0.935 ± 0.28 for the second.

Compared with K114E, P416V is lower in “AIRE transcriptional activation functional score” value: 1.46 ± 0.18 for the first, 0.526 ± 0.12 for the second.

First: P416H
Second: G251S
The “AIRE transcriptional activation functional score” value of the first is lower: -0.0276 ± 0.2 for the first, 0.796 ± 0.22 for the second.

Compared with L495A, A321W is lower in “AIRE transcriptional activation functional score” value: 1.42 ± 0.052 for the first, 1.14 ± 0.028 for the second.

V301K and V301H are within error of each other in “AIRE transcriptional activation functional score” value: 1.09 ± 0.31 for the first, 1.56 ± 0.16 for the second.

First: V301Q
Second: L291A
The “AIRE transcriptional activation functional score” value of the first is higher: 1.08 ± 0.1 for the first, 0.566 ± 0.33 for the second.

First: H292N
Second: V279T
The “AIRE transcriptional activation functional score” value of the first is higher: 1.03 ± 0.019 for the first, 0.815 ± 0.12 for the second.

In the case of L49H, the “AIRE transcriptional activation functional score” value is reported as -0.538 ± 0.091.
